Literature values in PMC3413252.

What was measured:
soluble IL6 receptor = soluble IL6 receptor (UniProt P08887)
surface IL6 receptor = surface IL6 receptor (UniProt P08887)

Sequence of IL6 (P05231 30-212): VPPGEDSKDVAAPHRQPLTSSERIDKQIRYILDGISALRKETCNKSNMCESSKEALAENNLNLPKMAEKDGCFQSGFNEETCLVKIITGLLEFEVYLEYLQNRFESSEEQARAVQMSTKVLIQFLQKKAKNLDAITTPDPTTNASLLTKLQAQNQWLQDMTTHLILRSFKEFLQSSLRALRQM

- Kd (soluble IL6 receptor): 30 nM
- Kd (surface IL6 receptor): 0.1 nM
Substance: IL6 (from UniProt P05231)
